Data taken from publication PMC4085236.

Columns and labels:
[1] = biological target: Cullin5/Rbx1 complex (mouse | not stated) (UniProt Q9D5V5); test: SEC
[2] = biological target: GST-Cul5(NTD)/HIS6-Rbx2/Cul(CTD) complex (mouse) (UniProt Q9D5V5); test: pull-down + SEC
GST-Cul5(NTD)/HIS6-Rbx2/Cul(CTD) complex (mouse), sequence (Q9D5V5 1-384, chain 1 of 3): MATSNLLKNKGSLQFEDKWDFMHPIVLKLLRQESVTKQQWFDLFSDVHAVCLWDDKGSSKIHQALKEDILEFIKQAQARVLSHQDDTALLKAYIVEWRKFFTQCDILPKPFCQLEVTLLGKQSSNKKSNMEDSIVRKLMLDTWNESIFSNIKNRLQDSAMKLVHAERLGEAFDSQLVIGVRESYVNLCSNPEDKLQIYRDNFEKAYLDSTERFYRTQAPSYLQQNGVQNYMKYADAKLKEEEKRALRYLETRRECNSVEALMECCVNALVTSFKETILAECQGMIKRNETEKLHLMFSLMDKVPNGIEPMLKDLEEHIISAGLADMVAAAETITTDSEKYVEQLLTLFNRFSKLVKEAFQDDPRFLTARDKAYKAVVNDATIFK
GST-Cul5(NTD)/HIS6-Rbx2/Cul(CTD) complex (mouse), sequence (Q9D5V5 385-780, chain 2 of 3): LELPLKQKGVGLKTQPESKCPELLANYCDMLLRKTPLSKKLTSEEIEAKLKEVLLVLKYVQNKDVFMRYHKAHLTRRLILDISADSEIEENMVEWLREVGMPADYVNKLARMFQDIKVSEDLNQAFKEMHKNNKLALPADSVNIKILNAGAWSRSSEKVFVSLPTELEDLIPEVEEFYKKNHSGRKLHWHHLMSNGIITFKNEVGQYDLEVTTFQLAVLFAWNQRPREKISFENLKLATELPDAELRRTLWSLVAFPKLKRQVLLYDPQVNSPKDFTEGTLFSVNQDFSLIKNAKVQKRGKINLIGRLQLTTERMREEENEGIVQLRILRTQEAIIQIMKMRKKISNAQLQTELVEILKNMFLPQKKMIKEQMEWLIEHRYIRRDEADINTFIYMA
GST-Cul5(NTD)/HIS6-Rbx2/Cul(CTD) complex (mouse), sequence (Q9WTZ1 whole entry, chain 3 of 3, further chain): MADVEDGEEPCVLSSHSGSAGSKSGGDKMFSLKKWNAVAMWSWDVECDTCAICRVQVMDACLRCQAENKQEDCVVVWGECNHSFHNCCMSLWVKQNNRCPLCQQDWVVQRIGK

Murine SOCS3/elonginsBC complex, sequence (O35718 22-225): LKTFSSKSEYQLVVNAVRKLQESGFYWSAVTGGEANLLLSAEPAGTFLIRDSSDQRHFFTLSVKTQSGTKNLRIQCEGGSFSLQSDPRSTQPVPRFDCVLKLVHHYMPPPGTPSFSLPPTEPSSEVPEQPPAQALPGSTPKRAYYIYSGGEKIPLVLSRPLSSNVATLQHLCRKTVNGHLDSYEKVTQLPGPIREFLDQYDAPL
Murine SOCS3/elonginsBC complex, sequence (P62869 whole entry): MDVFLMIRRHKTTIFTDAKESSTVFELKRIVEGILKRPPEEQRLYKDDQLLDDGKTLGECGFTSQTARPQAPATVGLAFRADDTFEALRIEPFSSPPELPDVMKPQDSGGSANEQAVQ
Murine SOCS3/elonginsBC complex, sequence (P83940 whole entry): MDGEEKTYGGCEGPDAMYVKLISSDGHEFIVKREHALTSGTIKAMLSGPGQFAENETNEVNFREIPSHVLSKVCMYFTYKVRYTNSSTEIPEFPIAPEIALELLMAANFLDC
Cullin5/Rbx1 complex (mouse | not stated), sequence (Q9D5V5 1-384, chain 1 of 3): as the sequence (Q9D5V5 1-384, chain 1 of 3) above
Cullin5/Rbx1 complex (mouse | not stated), sequence (Q9D5V5 385-780, chain 2 of 3): as the sequence (Q9D5V5 385-780, chain 2 of 3) above
Cullin5/Rbx1 complex (mouse | not stated), sequence (P62878 whole entry, chain 3 of 3, further chain): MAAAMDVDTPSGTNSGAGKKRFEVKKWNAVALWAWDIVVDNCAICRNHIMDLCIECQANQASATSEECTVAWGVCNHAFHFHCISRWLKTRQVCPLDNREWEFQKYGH

- stoichiometry N [1]: 1
- stoichiometry N [2]: 1
Substance: Murine SOCS3/elonginsBC complex (from UniProt O35718 22-225; P62869 1-118; P83940 1-112)
